Experimental data from patent US20250327097A1, “ORGANISMS PRODUCING LESS CROTONIC ACID” (Global Bioenergies, priority 2021, published 2025).

B1: K391I-L432W-L434M (protein)
chain: MFLKSLREQINLLKRQGDLRIINRPVDSYLEAAAIIRRSTETKAPVPLMTNIKGYPGCSIVGGLAALSSNPEYPLSRVAMSLGLSTTASAQSIVQYLIDGLKKTPYLPVEIDSNSAPCKQNILRGEDASLAHFPIPQVHQHDGNRYVNTWGVFIVESPDGQWCNWSIQRVQYLNDRQMIALVFPSQHISDIWEEWVKIGKPMPYALVQGCEPIVPYIAGLPLLERNVNEAEYIGALYGKGIEVVKCETHDLRVPASSEVVIEGYFAITREGVEGPFGEFAGYIPNENSLQPILSITAISWQDDPIWPVVAEGKPVDEYHTCSGIGDAAAIQNVLLTANLPVSFVWVPLYSACHLMIVSINRHWRQTHPDLTSEQLTKKVGDVIHQTRNSIILPKIVVLDDDVDPADTESLLWALATRIHPERKRYFYESCIWPMLSCYSEEERHNRKGKRVIIDALLPENHGAISSFDYAYPDDIKQRVLMHWETDFSHD
B2: L432F-L434W-S436A (protein)
chain: MFLKSLREQINLLKRQGDLRIINRPVDSYLEAAAIIRRSTETKAPVPLMTNIKGYPGCSIVGGLAALSSNPEYPLSRVAMSLGLSTTASAQSIVQYLIDGLKKTPYLPVEIDSNSAPCKQNILRGEDASLAHFPIPQVHQHDGNRYVNTWGVFIVESPDGQWCNWSIQRVQYLNDRQMIALVFPSQHISDIWEEWVKIGKPMPYALVQGCEPIVPYIAGLPLLERNVNEAEYIGALYGKGIEVVKCETHDLRVPASSEVVIEGYFAITREGVEGPFGEFAGYIPNENSLQPILSITAISWQDDPIWPVVAEGKPVDEYHTCSGIGDAAAIQNVLLTANLPVSFVWVPLYSACHLMIVSINRHWRQTHPDLTSEQLTKKVGDVIHQTRNSIKLPKIVVLDDDVDPADTESLLWALATRIHPERKRYFYESCIFPWLACYSEEERHNRKGKRVIIDALLPENHGAISSFDYAYPDDIKQRVLMHWETDFSHD
B3: N388M-L432F-L434W (protein)
chain: MFLKSLREQINLLKRQGDLRIINRPVDSYLEAAAIIRRSTETKAPVPLMTNIKGYPGCSIVGGLAALSSNPEYPLSRVAMSLGLSTTASAQSIVQYLIDGLKKTPYLPVEIDSNSAPCKQNILRGEDASLAHFPIPQVHQHDGNRYVNTWGVFIVESPDGQWCNWSIQRVQYLNDRQMIALVFPSQHISDIWEEWVKIGKPMPYALVQGCEPIVPYIAGLPLLERNVNEAEYIGALYGKGIEVVKCETHDLRVPASSEVVIEGYFAITREGVEGPFGEFAGYIPNENSLQPILSITAISWQDDPIWPVVAEGKPVDEYHTCSGIGDAAAIQNVLLTANLPVSFVWVPLYSACHLMIVSINRHWRQTHPDLTSEQLTKKVGDVIHQTRMSIKLPKIVVLDDDVDPADTESLLWALATRIHPERKRYFYESCIFPWLSCYSEEERHNRKGKRVIIDALLPENHGAISSFDYAYPDDIKQRVLMHWETDFSHD
B4: C430P-L432F-L434W-S436A (protein)
chain: MFLKSLREQINLLKRQGDLRIINRPVDSYLEAAAIIRRSTETKAPVPLMTNIKGYPGCSIVGGLAALSSNPEYPLSRVAMSLGLSTTASAQSIVQYLIDGLKKTPYLPVEIDSNSAPCKQNILRGEDASLAHFPIPQVHQHDGNRYVNTWGVFIVESPDGQWCNWSIQRVQYLNDRQMIALVFPSQHISDIWEEWVKIGKPMPYALVQGCEPIVPYIAGLPLLERNVNEAEYIGALYGKGIEVVKCETHDLRVPASSEVVIEGYFAITREGVEGPFGEFAGYIPNENSLQPILSITAISWQDDPIWPVVAEGKPVDEYHTCSGIGDAAAIQNVLLTANLPVSFVWVPLYSACHLMIVSINRHWRQTHPDLTSEQLTKKVGDVIHQTRNSIKLPKIVVLDDDVDPADTESLLWALATRIHPERKRYFYESPIFPWLACYSEEERHNRKGKRVIIDALLPENHGAISSFDYAYPDDIKQRVLMHWETDFSHD
B5: K394R-L432F-L434W (protein)
chain: MFLKSLREQINLLKRQGDLRIINRPVDSYLEAAAIIRRSTETKAPVPLMTNIKGYPGCSIVGGLAALSSNPEYPLSRVAMSLGLSTTASAQSIVQYLIDGLKKTPYLPVEIDSNSAPCKQNILRGEDASLAHFPIPQVHQHDGNRYVNTWGVFIVESPDGQWCNWSIQRVQYLNDRQMIALVFPSQHISDIWEEWVKIGKPMPYALVQGCEPIVPYIAGLPLLERNVNEAEYIGALYGKGIEVVKCETHDLRVPASSEVVIEGYFAITREGVEGPFGEFAGYIPNENSLQPILSITAISWQDDPIWPVVAEGKPVDEYHTCSGIGDAAAIQNVLLTANLPVSFVWVPLYSACHLMIVSINRHWRQTHPDLTSEQLTKKVGDVIHQTRNSIKLPRIVVLDDDVDPADTESLLWALATRIHPERKRYFYESCIFPWLSCYSEEERHNRKGKRVIIDALLPENHGAISSFDYAYPDDIKQRVLMHWETDFSHD
B6: K394R-L432F-L434W-S436A (protein)
chain: MFLKSLREQINLLKRQGDLRIINRPVDSYLEAAAIIRRSTETKAPVPLMTNIKGYPGCSIVGGLAALSSNPEYPLSRVAMSLGLSTTASAQSIVQYLIDGLKKTPYLPVEIDSNSAPCKQNILRGEDASLAHFPIPQVHQHDGNRYVNTWGVFIVESPDGQWCNWSIQRVQYLNDRQMIALVFPSQHISDIWEEWVKIGKPMPYALVQGCEPIVPYIAGLPLLERNVNEAEYIGALYGKGIEVVKCETHDLRVPASSEVVIEGYFAITREGVEGPFGEFAGYIPNENSLQPILSITAISWQDDPIWPVVAEGKPVDEYHTCSGIGDAAAIQNVLLTANLPVSFVWVPLYSACHLMIVSINRHWRQTHPDLTSEQLTKKVGDVIHQTRNSIKLPRIVVLDDDVDPADTESLLWALATRIHPERKRYFYESCIFPWLACYSEEERHNRKGKRVIIDALLPENHGAISSFDYAYPDDIKQRVLMHWETDFSHD
B7: L432F-L434W-S436N (protein)
chain: MFLKSLREQINLLKRQGDLRIINRPVDSYLEAAAIIRRSTETKAPVPLMTNIKGYPGCSIVGGLAALSSNPEYPLSRVAMSLGLSTTASAQSIVQYLIDGLKKTPYLPVEIDSNSAPCKQNILRGEDASLAHFPIPQVHQHDGNRYVNTWGVFIVESPDGQWCNWSIQRVQYLNDRQMIALVFPSQHISDIWEEWVKIGKPMPYALVQGCEPIVPYIAGLPLLERNVNEAEYIGALYGKGIEVVKCETHDLRVPASSEVVIEGYFAITREGVEGPFGEFAGYIPNENSLQPILSITAISWQDDPIWPVVAEGKPVDEYHTCSGIGDAAAIQNVLLTANLPVSFVWVPLYSACHLMIVSINRHWRQTHPDLTSEQLTKKVGDVIHQTRNSIKLPKIVVLDDDVDPADTESLLWALATRIHPERKRYFYESCIFPWLNCYSEEERHNRKGKRVIIDALLPENHGAISSFDYAYPDDIKQRVLMHWETDFSHD
B8: C430S-L432F-L434W-S436A (protein)
chain: MFLKSLREQINLLKRQGDLRIINRPVDSYLEAAAIIRRSTETKAPVPLMTNIKGYPGCSIVGGLAALSSNPEYPLSRVAMSLGLSTTASAQSIVQYLIDGLKKTPYLPVEIDSNSAPCKQNILRGEDASLAHFPIPQVHQHDGNRYVNTWGVFIVESPDGQWCNWSIQRVQYLNDRQMIALVFPSQHISDIWEEWVKIGKPMPYALVQGCEPIVPYIAGLPLLERNVNEAEYIGALYGKGIEVVKCETHDLRVPASSEVVIEGYFAITREGVEGPFGEFAGYIPNENSLQPILSITAISWQDDPIWPVVAEGKPVDEYHTCSGIGDAAAIQNVLLTANLPVSFVWVPLYSACHLMIVSINRHWRQTHPDLTSEQLTKKVGDVIHQTRNSIKLPKIVVLDDDVDPADTESLLWALATRIHPERKRYFYESSIFPWLACYSEEERHNRKGKRVIIDALLPENHGAISSFDYAYPDDIKQRVLMHWETDFSHD
B9: N388M-L432F-L434W-S436A (protein)
chain: MFLKSLREQINLLKRQGDLRIINRPVDSYLEAAAIIRRSTETKAPVPLMTNIKGYPGCSIVGGLAALSSNPEYPLSRVAMSLGLSTTASAQSIVQYLIDGLKKTPYLPVEIDSNSAPCKQNILRGEDASLAHFPIPQVHQHDGNRYVNTWGVFIVESPDGQWCNWSIQRVQYLNDRQMIALVFPSQHISDIWEEWVKIGKPMPYALVQGCEPIVPYIAGLPLLERNVNEAEYIGALYGKGIEVVKCETHDLRVPASSEVVIEGYFAITREGVEGPFGEFAGYIPNENSLQPILSITAISWQDDPIWPVVAEGKPVDEYHTCSGIGDAAAIQNVLLTANLPVSFVWVPLYSACHLMIVSINRHWRQTHPDLTSEQLTKKVGDVIHQTRMSIKLPKIVVLDDDVDPADTESLLWALATRIHPERKRYFYESCIFPWLACYSEEERHNRKGKRVIIDALLPENHGAISSFDYAYPDDIKQRVLMHWETDFSHD
B10: C430S-L432F-L434W (protein)
chain: MFLKSLREQINLLKRQGDLRIINRPVDSYLEAAAIIRRSTETKAPVPLMTNIKGYPGCSIVGGLAALSSNPEYPLSRVAMSLGLSTTASAQSIVQYLIDGLKKTPYLPVEIDSNSAPCKQNILRGEDASLAHFPIPQVHQHDGNRYVNTWGVFIVESPDGQWCNWSIQRVQYLNDRQMIALVFPSQHISDIWEEWVKIGKPMPYALVQGCEPIVPYIAGLPLLERNVNEAEYIGALYGKGIEVVKCETHDLRVPASSEVVIEGYFAITREGVEGPFGEFAGYIPNENSLQPILSITAISWQDDPIWPVVAEGKPVDEYHTCSGIGDAAAIQNVLLTANLPVSFVWVPLYSACHLMIVSINRHWRQTHPDLTSEQLTKKVGDVIHQTRNSIKLPKIVVLDDDVDPADTESLLWALATRIHPERKRYFYESSIFPWLSCYSEEERHNRKGKRVIIDALLPENHGAISSFDYAYPDDIKQRVLMHWETDFSHD
B11: R387A-L432F-L434W-S436A (protein)
chain: MFLKSLREQINLLKRQGDLRIINRPVDSYLEAAAIIRRSTETKAPVPLMTNIKGYPGCSIVGGLAALSSNPEYPLSRVAMSLGLSTTASAQSIVQYLIDGLKKTPYLPVEIDSNSAPCKQNILRGEDASLAHFPIPQVHQHDGNRYVNTWGVFIVESPDGQWCNWSIQRVQYLNDRQMIALVFPSQHISDIWEEWVKIGKPMPYALVQGCEPIVPYIAGLPLLERNVNEAEYIGALYGKGIEVVKCETHDLRVPASSEVVIEGYFAITREGVEGPFGEFAGYIPNENSLQPILSITAISWQDDPIWPVVAEGKPVDEYHTCSGIGDAAAIQNVLLTANLPVSFVWVPLYSACHLMIVSINRHWRQTHPDLTSEQLTKKVGDVIHQTANSIKLPKIVVLDDDVDPADTESLLWALATRIHPERKRYFYESCIFPWLACYSEEERHNRKGKRVIIDALLPENHGAISSFDYAYPDDIKQRVLMHWETDFSHD

Tested on: 3-methylcrotonic acid
Assay type: biochemical, Yersinia frederiksenii
Set-up: key: “+” representing a low increase in activity; “++++” representing a high increase in activity

Molecule | Activity relative to WT
B1 | +
B2 | +
B3 | +
B4 | +
B5 | +
B6 | +
B7 | +
B8 | +
B9 | +
B10 | +
B11 | +
